From patent US7078174 (WALTER AND ELIZA HALL INSTITUTE OF MEDICAL RESEARCH, dated 2006) come the findings set out here.

Test [1] deals with T1, elongin C (endogenous, murine M1 cells) (murine, UniProt P83940 1-112).
T1 construct: Endogenous protein from cell lysate; present together with elongin B; also called 15 kDa band
Briefly: anti-FLAG M2 immunoprecipitation from M1 cells, FLAG peptide elution, Western blot. How it is done: FIG. 2 is a photographic representation showing competition of SOCS-1 SOCS box interaction with elongin C. Biotinylated SOCS-1 SOCS box peptide was immobilized on streptavidin-agarose resin and used to affinity purify interacting proteins from M1 cellular extracts in the presence (+) or absence (–) of […] competing non-biotinylated SOCS box peptides. Proteins were separated by SDS-PAGE on a 4–15% w/v acrylamide gel, and bands were visualized by silver staining. Soluble SOCS box peptides corresponding to SOCS-1, ASB-2 and WSB-2 prevented binding of elongin C to immobilized SOCS-1 SOCS box FIG. 3 is a photographic representation showing interaction of SOCS-1 with endogenous elongins B and C. Cellular extracts from M1 cells stably expressing either full-length SOCS-1 or SOCS-1 lacking SOCS box (both proteins were N-terminally FLAG-tagged) were incubated with anti-FLAG antibody M2 resin and bound cellular proteins were eluted from the columns with FLAG peptide as described in Materials and Methods. Lanes 1–3 correspond to column eluates 3 to 5 from M1 cells expressing full-length SOCS-1 and lanes 4–6 correspond to column eluates 3 to 5 from M1 cells expressing SOCS-1 lacking SOCS box. The panels from top to bottom correspond to Western blot analyses by anti-FLAG, anti-elongin C, anti-elongin B, and a mixture of anti-elongin B and anti-elongin C, respectively. […]
In general terms: Immunoblotting shows a protein as a band on a membrane.

In test [2] the target is cullin 2 (endogenous, M1 cells) (murine, UniProt Q9D4H8 1-745). The test can be described thus: anti-FLAG affinity column from unstimulated M1 cells, FLAG peptide elution, Western blot. The source says:
(§1) The inventors passed lysates from 10^9 unstimulated M1 cells expressing FLAG-tagged SOCS-1 through an anti-FLAG affinity column which was then eluted with FLAG peptide. The eluate was then subjected to SDS-PAGE and the proteins were Western blotted. The blot was then probed with anti-FLAG antibodies to confirm the presence of SOCS-1 and with a range of antibodies against proteins thought to interact with SOCS-1 (FIG. 7). It can be seen that SOCS-1 is capable of forming a complex with elongin B and elongin C, cullin 2, as well as JAK1 and gp130. To determine whether proteins in this complex interact directly or indirectly with SOCS-1, or whether all the proteins can be found together in a single complex, or whether separate complexes are, for example, formed between SOCS-1, JAK-1 and gp130 on one hand and between SOCS-1, elongin B and C and cullin-2, is addressed in part by performing the primary immunoprecipitation using a different antibody.

Test [3] deals with JAK1 (endogenous, M1 cells) (murine, UniProt P52332 1-1153). The description is as above.
Text: as §1

The target of test [4] is T2, gp130 (endogenous, M1 cells) (murine, UniProt Q00560 23-917).
T2 sequence (looked up): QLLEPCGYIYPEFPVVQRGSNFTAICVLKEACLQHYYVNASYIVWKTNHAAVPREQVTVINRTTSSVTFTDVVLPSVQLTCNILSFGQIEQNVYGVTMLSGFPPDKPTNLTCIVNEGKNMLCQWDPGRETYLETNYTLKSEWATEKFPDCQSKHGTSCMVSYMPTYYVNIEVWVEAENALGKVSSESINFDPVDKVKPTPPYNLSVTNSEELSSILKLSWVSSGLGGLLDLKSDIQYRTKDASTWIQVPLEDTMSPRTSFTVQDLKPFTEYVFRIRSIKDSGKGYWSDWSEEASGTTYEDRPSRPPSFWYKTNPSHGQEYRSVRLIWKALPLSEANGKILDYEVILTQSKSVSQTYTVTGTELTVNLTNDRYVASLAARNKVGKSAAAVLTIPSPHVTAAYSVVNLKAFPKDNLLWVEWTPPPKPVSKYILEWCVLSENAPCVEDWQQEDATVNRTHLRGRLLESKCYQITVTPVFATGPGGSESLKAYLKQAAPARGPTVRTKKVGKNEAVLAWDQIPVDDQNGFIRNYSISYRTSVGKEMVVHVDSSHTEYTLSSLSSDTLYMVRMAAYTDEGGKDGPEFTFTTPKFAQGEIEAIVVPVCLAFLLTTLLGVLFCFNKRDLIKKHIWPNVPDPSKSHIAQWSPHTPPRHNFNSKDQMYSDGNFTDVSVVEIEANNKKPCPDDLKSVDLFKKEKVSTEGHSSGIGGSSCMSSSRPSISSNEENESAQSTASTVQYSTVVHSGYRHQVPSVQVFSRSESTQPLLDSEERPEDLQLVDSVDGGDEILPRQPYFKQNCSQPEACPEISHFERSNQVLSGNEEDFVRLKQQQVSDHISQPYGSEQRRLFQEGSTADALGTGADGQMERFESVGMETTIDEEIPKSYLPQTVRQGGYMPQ
The description is as above.
Text: as §1

Test [5] has as its target T3, GST (glutathione-S-transferase control) (UniProt P08515 1-218 = GST, covalently coupled to NHS-activated Sepharose resin).
T3 construct: also called GST-Sepharose; GST control
Briefly: GST-Sepharose pull-down from M1 cell lysate, Coomassie gel and Western blot. How it is done:
M1 cells (2 ×10^10) were lysed on ice for 30 min in 100 ml of lysis buffer supplemented with protease inhibitors (Complete Cocktail tablets; Boehringer Mannheim, Mannheim, Germany), 1 mM PMSF, 1 mM Na_3VO_4 and 1 mM NaF. The total cell lysate was centrifuged at 15,000 rpm (SS34 rotor) for 15 min at 4° C. and the clarified supernatant pre-incubated with 1 ml of GST-Sepharose resin for 2 h at 4° C. Half the GST-Sepharose-depleted M1 cell lysate was incubated with 1 ml of GST-SOCS-1 SOCS box- and the other half with GST-SOCS-3 SOCS box-Sepharose resin for 2 h at 4° C. The affinity resins were washed with 40 ml of lysis buffer and then eluted with 8×0.5 ml of elation buffer. Eluates were concentrated to ~40 μl, mixed with 15 μl of 4×SDS sample buffer containing 0.4 M DTT and resolved on a 14% polyacrylamide gel (Novex). The gel was stained for 5 min with 0.1% w/v Coomassie blue in 50% w/v methanol and destained in 12% w/v methanol and 7% w/v acetic acid.
Isolated SOCS box sequences were used as affinity reagents to identify interacting proteins in cell lysates. […] (GST) fusion proteins containing the SOCS box sequences from SOCS-1 or SOCS-3 were coupled to Sepharose beads and used as affinity resins to bind proteins from M1 cell lysates. […]

The target in test [6] is T4, FLAG-tagged SSB-1 truncated form lacking only the SOCS box (mouse, UniProt Q9D5L7 1-231, limits assumed).
T4 construct: domain: SSB-1 lacking only the SOCS box; Transiently expressed in 293T cells; also called truncated form of SSB-1 lacking only the SOCS box
T4 sequence: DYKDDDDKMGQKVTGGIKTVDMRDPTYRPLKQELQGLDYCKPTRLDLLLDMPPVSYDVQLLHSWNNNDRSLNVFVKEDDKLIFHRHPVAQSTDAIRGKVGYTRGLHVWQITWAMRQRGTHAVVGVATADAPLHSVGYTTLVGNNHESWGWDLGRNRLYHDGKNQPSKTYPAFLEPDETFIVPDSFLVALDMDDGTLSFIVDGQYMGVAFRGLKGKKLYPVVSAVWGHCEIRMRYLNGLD
Briefly: co-immunoprecipitation with anti-myc from transfected 293T cells, Western blot with anti-FLAG. An excerpt: To further confirm the generality of this interaction for other proteins containing a SOCS box, 293T fibroblasts were transfected with N-terminally FLAG-tagged WSB-2 or SSB-1 along with elongin B containing a FLAG epitope or elongin C containing a myc epitope.

Chain of cullin 2 (endogenous, M1 cells) (Q9D4H8 whole entry): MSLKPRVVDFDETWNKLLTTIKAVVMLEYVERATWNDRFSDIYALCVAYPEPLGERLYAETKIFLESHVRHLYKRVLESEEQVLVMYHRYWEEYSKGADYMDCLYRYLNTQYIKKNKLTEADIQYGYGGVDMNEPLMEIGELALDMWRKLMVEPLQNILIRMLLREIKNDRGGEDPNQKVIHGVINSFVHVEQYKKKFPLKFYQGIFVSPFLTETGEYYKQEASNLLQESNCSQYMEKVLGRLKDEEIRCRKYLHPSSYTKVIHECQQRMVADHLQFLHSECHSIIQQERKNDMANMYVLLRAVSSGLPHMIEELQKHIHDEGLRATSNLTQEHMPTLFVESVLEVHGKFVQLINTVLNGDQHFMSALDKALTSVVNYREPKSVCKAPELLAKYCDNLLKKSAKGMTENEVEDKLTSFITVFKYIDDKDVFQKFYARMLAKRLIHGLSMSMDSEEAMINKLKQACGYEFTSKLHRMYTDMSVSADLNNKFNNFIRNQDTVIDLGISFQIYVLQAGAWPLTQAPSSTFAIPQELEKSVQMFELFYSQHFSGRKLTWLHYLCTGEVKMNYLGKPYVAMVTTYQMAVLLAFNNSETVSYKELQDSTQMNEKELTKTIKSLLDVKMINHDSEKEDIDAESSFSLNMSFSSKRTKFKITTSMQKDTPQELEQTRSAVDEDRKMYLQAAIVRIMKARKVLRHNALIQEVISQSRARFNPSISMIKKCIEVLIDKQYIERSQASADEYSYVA
T3 sequence (P08515 whole entry): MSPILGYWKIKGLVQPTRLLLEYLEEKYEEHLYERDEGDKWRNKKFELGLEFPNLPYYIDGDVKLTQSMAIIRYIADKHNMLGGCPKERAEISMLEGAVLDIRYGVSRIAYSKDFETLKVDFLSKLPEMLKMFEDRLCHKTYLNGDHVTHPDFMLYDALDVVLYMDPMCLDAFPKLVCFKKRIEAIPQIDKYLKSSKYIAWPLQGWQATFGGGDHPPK
Chain of JAK1 (endogenous, M1 cells) (P52332 whole entry): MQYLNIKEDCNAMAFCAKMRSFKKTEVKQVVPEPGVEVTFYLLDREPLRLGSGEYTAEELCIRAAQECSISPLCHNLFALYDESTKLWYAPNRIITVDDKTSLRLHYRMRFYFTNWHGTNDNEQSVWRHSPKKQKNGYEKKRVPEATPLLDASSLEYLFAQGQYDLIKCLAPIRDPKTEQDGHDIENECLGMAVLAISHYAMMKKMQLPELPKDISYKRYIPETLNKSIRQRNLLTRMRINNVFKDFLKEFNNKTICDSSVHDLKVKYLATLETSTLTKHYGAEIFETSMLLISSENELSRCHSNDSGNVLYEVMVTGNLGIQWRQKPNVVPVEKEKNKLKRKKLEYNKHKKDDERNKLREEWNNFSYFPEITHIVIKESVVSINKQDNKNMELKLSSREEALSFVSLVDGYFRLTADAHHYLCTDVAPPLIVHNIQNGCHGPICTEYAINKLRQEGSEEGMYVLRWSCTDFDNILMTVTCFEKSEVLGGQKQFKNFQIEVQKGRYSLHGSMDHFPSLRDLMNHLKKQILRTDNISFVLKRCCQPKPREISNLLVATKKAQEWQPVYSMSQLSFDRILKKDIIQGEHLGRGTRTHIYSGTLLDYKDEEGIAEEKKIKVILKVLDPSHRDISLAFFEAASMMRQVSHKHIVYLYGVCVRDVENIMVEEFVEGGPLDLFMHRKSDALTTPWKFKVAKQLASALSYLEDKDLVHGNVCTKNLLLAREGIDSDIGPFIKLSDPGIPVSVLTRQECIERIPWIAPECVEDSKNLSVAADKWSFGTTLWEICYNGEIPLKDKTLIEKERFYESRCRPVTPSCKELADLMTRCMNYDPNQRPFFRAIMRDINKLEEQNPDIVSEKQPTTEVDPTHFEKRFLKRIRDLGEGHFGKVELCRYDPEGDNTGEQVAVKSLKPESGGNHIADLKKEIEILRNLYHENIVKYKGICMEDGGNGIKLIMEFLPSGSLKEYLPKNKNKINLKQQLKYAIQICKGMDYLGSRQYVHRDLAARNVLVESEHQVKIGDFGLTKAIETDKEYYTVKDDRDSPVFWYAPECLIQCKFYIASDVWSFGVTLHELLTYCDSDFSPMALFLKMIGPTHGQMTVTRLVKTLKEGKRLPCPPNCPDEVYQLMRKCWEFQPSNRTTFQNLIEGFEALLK

B1: N-terminally FLAG-tagged full-length SOCS-1 (other, mouse)
chain: DYKDDDDKMVARNQVAADNAISPAAEPRRRSEPSSSSSSSSPAAPVRPRPCPAVPAPAPGDTHFRTFRSHSDYRRITRTSALLDACGFYWGPLSVHGAHERLRAEPVGTFLVRDSRQRNCFFALSVKMASGPTSIRVHFQAGRFHLDGSRETFDCLFELLEHYVAAPRRMLGAPLRQRRVRPLQELCRQRIVAAVGRENLARIPLNPVLRDYLSSFPFQI
notes: Stably expressed in M1 cells; also called FLAG-tagged SOCS-1; intact SOCS-1
Regarding B1, the binding result in test [1], in test [2], in test [3] and in test [4] was “binds” in each case.

B2: elongin B (endogenous, murine M1 cells) (other, UniProt P62869 1-118, looked up)
chain: MDVFLMIRRHKTTIFTDAKESSTVFELKRIVEGILKRPPEEQRLYKDDQLLDDGKTLGECGFTSQTARPQAPATVGLAFRADDTFEALRIEPFSSPPELPDVMKPQDSGGSANEQAVQ
notes: Endogenous protein from cell lysate; also called 18 kDa band
Take B2: the binding result in test [5] is listed as “no binding”.

B3: elongin B containing a FLAG epitope (other, mouse)
chain: DYKDDDDKMDVFLMIRRHKTTIFTDAKESSTVFELKRIVEGILKRPPEEQRLYKDDQLLDDGKTLGECGFTSQTARPQAPATVGLAFRADDTFEALRIEPFSSPPELPDVMKPQDSGGSANEQAVQ
notes: Transiently expressed in 293T cells; also called FLAG-elongin B
In the case of B3, the binding result in test [6] is listed as “no binding”.

B4: elongin C containing a myc epitope (other, mouse)
chain: DQKLISEEDLMDGEEKTYGGCEGPDAMYVKLISSDGHEFIVKREHALTSGTIKAMLSGPGQFAENETNEVNFREIPSHVLSKVCMYFTYKVRYTNSSTEIPEFPIAPEIALELLMAANFLDC
notes: Transiently expressed in 293T cells; also called myc-elongin C
As for B4, in test [6], the binding result is listed as “no binding”.
